The subject of this data set is MS2 coat protein. In words: apparent KD of MS2 coat protein; designed switch direction (-1 OFF switch, 1 ON switch): 1; higher = weaker reporter binding. Summed up:
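Stalled E. coli RNA polymerase transcribed designed RNA switches on Illumina chips, which were then titrated with SNAP-549-labelled MS2 coat protein, doubling from 0.7 or 1.5 nM to 3 µM. Steps lasted from 0.8–1.5 h at the lowest concentration to 10–20 min at the highest. The apparent KD is each design's median over clusters of curve-fitted normalised fluorescence.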

[1] abbreviates: input ligand: microRNA oligo, concentration not stated.
Where [2] appears, read: Eterna round: R95, input ligand: FMN 200 uM.
Where [3] appears, read: Eterna round: R95, input ligand: microRNA oligo, concentration not stated.
[4] abbreviates: Eterna round: R95, input ligand: none.

Experimental findings from the supplement of paper PMC9170038 are described below.

As to “AAUAUUAAGGCGGACGUUAACCGCAACCGACAUGAGGAUCACCCAUGUGCUUCAAGCUCAGACAUCUCUUAUCGUCA [Arrizareat] (Eterna round: R96, puzzle: Sensor for hsa-mir-208a)”, the “apparent KD of MS2 coat protein” value (input ligand: FMN 200 uM) was 84.3 nM, the “apparent KD of MS2 coat protein” value under setting [1] came out at 59.4 nM and the “apparent KD of MS2 coat protein” value (input ligand: none) was determined as 79 nM.

Turning to “AAUUAAUUAAUUAAGUACAUGAGGAUCACCCAUGUAAGUGAUCAGGAUAUCAGCUCGUUUAGAGCUGAGAAGGGAUCCAUGUAC [SSNG3/15-A3] (Eterna round: R96, puzzle: Same State NG 3)”, the “apparent KD of MS2 coat protein” value reads like this: (input ligand: FMN 200 uM) 360 nM; under setting [1], 297 nM; (input ligand: none) 404 nM.

Regarding “AAUUCAAACAGAGGAUAUUGUUUAUCUCUAUUGCAAGAAGGCUGAUCUUACUACCCACUUAUGAAACAUGAGGAUCACCCAUGU [JR_SSNG1_Sub018] (Eterna round: R96, puzzle: Same State NG 1)”, the “apparent KD of MS2 coat protein” value under setting [1] was found to be 30.1 nM.

In the case of “ACAAGCUUUUUGCUCAUCUUAUGUCCGAAACAUGAGGAUCACCCAUGUAUAGAUUAUGUGUUGUUGUAGAUACAAGA [JR_SHM208A_Sub063] (puzzle: Sensor for hsa-mir-208a)”, the “apparent KD of MS2 coat protein” value is, setting by setting: under setting [2], 22.7 nM; under setting [3], 19.6 nM; under setting [4], 28.3 nM.

As for “ACACUUGCACAUGAGGAUCACCCAUGUUGACAAGCUUUUUGCUCGUCUUAUAGAACAAAGAAGAAGAACAACAGAAA [Victory 2] (puzzle: Sensor for hsa-mir-208a version 2)”, the “apparent KD of MS2 coat protein” value is, setting by setting: under setting [2], 20.7 nM; under setting [3], 17.9 nM; under setting [4], 21.9 nM.

Regarding “ACAUGAAAUAGAGGAUAUUUUGUACCUACAUGUGACAUGAGGAUCACCCAUGUGGUAAGUAUGAGAAAGAAGGCUAAGAUAUGU [Equivalence 12 - Jieux - Same State NG 2] (Eterna round: R96, puzzle: Same State NG 2)”, the “apparent KD of MS2 coat protein” value stood at 18.6 nM (input ligand: FMN 200 uM), 30.3 nM under setting [1] and 48.6 nM (input ligand: none).

Turning to “ACAUGAGACCAAGGAUAUUUUGUACCUACAUGUGACAUGAGGAUCACCCAUGUGGUAAGUAUGAGGGAGAAGGUGGAGAUAUGU [Equivalence 24 - Jieux - Same State NG 2] (Eterna round: R96, puzzle: Same State NG 2)”, the “apparent KD of MS2 coat protein” value by setting is: (input ligand: FMN 200 uM) 54.3 nM; under setting [1], 48.7 nM; (input ligand: none) 73.7 nM.

Turning to “ACAUGAGACGUAGGAUAUAUUGUACCUACAUGUGACAUGAGGAUCACCCAUGUGGUAAGUAUGACAUAGAAGGACGAGAUAUGU [Equivalance 94 - Jieux - Same State NG 2] (Eterna round: R96, puzzle: Same State NG 2)”, the “apparent KD of MS2 coat protein” value by setting is: (input ligand: FMN 200 uM) 48.6 nM; under setting [1], 49.7 nM; (input ligand: none) 64.3 nM.

Turning to “ACAUGAGACUUAGGAUAUGUUGUACCUACAUGUGACAUGAGGAUCACCCAUGUGGUAAGUAUGAUACAGAAGGAAGAGAUAUGU [Equivalance 66 - Jieux - Same State NG 2] (Eterna round: R96, puzzle: Same State NG 2)”, the “apparent KD of MS2 coat protein” value is, setting by setting: (input ligand: FMN 200 uM) 17.2 nM; under setting [1], 27.5 nM; (input ligand: none) 42.9 nM.

In the case of “ACAUGAGAGAUAGGAUAUCGUGUACCUACAUGUGACAUGAGGAUCACCCAUGUGGUAAGUAUGAGCGAGAAGGAUCAGAUAUGU [Equivalence 50 - Jieux - Same State NG 2] (Eterna round: R96, puzzle: Same State NG 2)”, the “apparent KD of MS2 coat protein” value by setting is: (input ligand: FMN 200 uM) 24.6 nM; under setting [1], 43.1 nM; (input ligand: none) 78.4 nM.

For the sequence “ACAUGAGAUAGAGGAUAUAUUGUACCUACAUGUGACAUGAGGAUCACCCAUGUGGUAAGUAUGACAUAGAAGGCUGAGAUAUGU [Equivalance 83 - Jieux - Same State NG 2] (Eterna round: R96, puzzle: Same State NG 2)”, the “apparent KD of MS2 coat protein” value (input ligand: FMN 200 uM) was determined as 69.8 nM, the “apparent KD of MS2 coat protein” value under setting [1] amounted to 67.5 nM and the “apparent KD of MS2 coat protein” value (input ligand: none) amounted to 77 nM.

On to “ACAUGAGAUGGAGGAUAUUUUGUACCUACAUGUGACAUGAGGAUCACCCAUGUGGUAAGUAUGAGAAAGAAGGCCAAGAUAUGU [Equivalence 17 - Jieux - Same State NG 2] (Eterna round: R96, puzzle: Same State NG 2)”, for which the “apparent KD of MS2 coat protein” value (input ligand: FMN 200 uM) was 17.6 nM, the “apparent KD of MS2 coat protein” value under setting [1] amounted to 18.4 nM and the “apparent KD of MS2 coat protein” value (input ligand: none) came to 28.5 nM.

Take “ACAUGAGGAUCACCCAUGUAUAGAAUUGAAUGUUAAGAUACGUAGGAUAUCGAGAUUAGUAUGAUCGAGAAGGACGAUUAGAUA [JR_SSNG3_Sub064] (Eterna round: R96, puzzle: Same State NG 3)”: the “apparent KD of MS2 coat protein” value was 12.6 nM (input ligand: FMN 200 uM), 16.6 nM under setting [1] and 20.3 nM (input ligand: none).
